In assay [1] the target is T1, orthogonal hCD122 receptor (hoRb), hCD122 with H133D and Y134F (human, UniProt P14784 27-550).
T1 sequence: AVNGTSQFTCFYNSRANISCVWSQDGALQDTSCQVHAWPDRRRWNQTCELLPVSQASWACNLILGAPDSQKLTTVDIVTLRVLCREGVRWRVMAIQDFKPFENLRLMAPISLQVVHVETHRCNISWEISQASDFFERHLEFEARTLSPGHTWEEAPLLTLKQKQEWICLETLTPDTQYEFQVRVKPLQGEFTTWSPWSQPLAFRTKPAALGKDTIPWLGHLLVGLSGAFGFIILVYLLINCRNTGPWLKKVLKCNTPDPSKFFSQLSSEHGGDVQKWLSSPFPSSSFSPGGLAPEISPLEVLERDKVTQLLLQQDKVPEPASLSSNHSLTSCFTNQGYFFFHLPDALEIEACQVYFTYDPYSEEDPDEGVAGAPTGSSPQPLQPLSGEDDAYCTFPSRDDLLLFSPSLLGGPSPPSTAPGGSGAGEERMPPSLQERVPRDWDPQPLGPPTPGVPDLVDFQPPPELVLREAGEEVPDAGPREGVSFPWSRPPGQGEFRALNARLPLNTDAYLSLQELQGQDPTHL
Description: cell-based or functional assay.

Assay [2] deals with T1, orthogonal hCD122 receptor (hoRb), …. The assay is described as follows: cell-based or functional assay. The source holds these as a separate data set.
Wherever Relative Proliferation Fold Change 3F8 1:10 is given: reference of the scale not given here.
Wherever Relative Proliferation Fold Change 3F8 1:2 is given: reference of the scale not given here.
Wherever Relative Proliferation Fold Change 3F8 1:50 is given: reference of the scale not given here.
Wherever Relative Proliferation Fold Change NKL 1:10 is given: reference of the scale not given here.
Wherever Relative Proliferation Fold Change NKL 1:2 is given: reference of the scale not given here.
Wherever Relative Proliferation Fold Change NKL 1:50 is given: reference of the scale not given here.

B1: T3Q, SQVLKA (ligand)
chain: APQSSSTKKTQLQLSQLLVLLKAILNGINNYKNPKLTRMLTFKFYMPKKATELKHLQCLEEELKPLEEVLNLAQSKNFHLRPRDLISNINVIVLELKGSETTFMCEYADETATIVEFLNRWITFCQSIISTLT
As to B1, in assay [1], the “3F8 Ortho Proliferation Signal 1:2” value came out at 39200 cts/min, the “3F8 Ortho Proliferation Signal 1:10” value is 32200 cts/min, the “3F8 Ortho Proliferation Signal 1:50” value is 14200 cts/min and the “Relative Proliferation Fold Change 3F8 1:2” value was 68.3 fold. Also, in assay [1], the “Relative Proliferation Fold Change 3F8 1:10” value came out at 28.2 fold and the “Relative Proliferation Fold Change 3F8 1:50” value was found to be 17.2 fold. Besides, in assay [2], the “NKL Ortho Proliferation Signal 1:2” value was determined as 65300, the “NKL Ortho Proliferation Signal 1:10” value worked out at 73700, the “NKL Ortho Proliferation Signal 1:50” value amounted to 34800 and the “Relative Proliferation Fold Change NKL 1:2” value was 4.19 fold. Further, in assay [2], the “Relative Proliferation Fold Change NKL 1:10” value worked out at 4.03 fold and the “Relative Proliferation Fold Change NKL 1:50” value stood at 1.93 fold.

B2: T3R, SQVLKA (ligand)
chain: APRSSSTKKTQLQLSQLLVLLKAILNGINNYKNPKLTRMLTFKFYMPKKATELKHLQCLEEELKPLEEVLNLAQSKNFHLRPRDLISNINVIVLELKGSETTFMCEYADETATIVEFLNRWITFCQSIISTLT
B2: in assay [1], the “3F8 Ortho Proliferation Signal 1:2” value was 28900 cts/min, the “3F8 Ortho Proliferation Signal 1:10” value is 16800 cts/min, the “3F8 Ortho Proliferation Signal 1:50” value turned out to be 5980 cts/min and the “Relative Proliferation Fold Change 3F8 1:2” value was 8.43 fold. In assay [1], the “Relative Proliferation Fold Change 3F8 1:10” value came to 13.3 fold and the “Relative Proliferation Fold Change 3F8 1:50” value was 5.3 fold. In addition, in assay [2], the “NKL Ortho Proliferation Signal 1:2” value worked out at 58400, the “NKL Ortho Proliferation Signal 1:10” value came out at 40700, the “NKL Ortho Proliferation Signal 1:50” value worked out at 19300 and the “Relative Proliferation Fold Change NKL 1:2” value turned out to be 4.15 fold. In assay [2], the “Relative Proliferation Fold Change NKL 1:10” value amounted to 2.9 fold and the “Relative Proliferation Fold Change NKL 1:50” value is 1.45 fold.

B3: T3K, SQVLKA (ligand)
chain: APKSSSTKKTQLQLSQLLVLLKAILNGINNYKNPKLTRMLTFKFYMPKKATELKHLQCLEEELKPLEEVLNLAQSKNFHLRPRDLISNINVIVLELKGSETTFMCEYADETATIVEFLNRWITFCQSIISTLT
Regarding B3, in assay [1], the “3F8 Ortho Proliferation Signal 1:2” value was 28900 cts/min, the “3F8 Ortho Proliferation Signal 1:10” value was determined as 15100 cts/min, the “3F8 Ortho Proliferation Signal 1:50” value stood at 7150 cts/min and the “Relative Proliferation Fold Change 3F8 1:2” value amounted to 50.9 fold. In assay [1], the “Relative Proliferation Fold Change 3F8 1:10” value came out at 7.35 fold and the “Relative Proliferation Fold Change 3F8 1:50” value is 9.24 fold. Also, in assay [2], the “NKL Ortho Proliferation Signal 1:2” value was 42900, the “NKL Ortho Proliferation Signal 1:10” value was 35500, the “NKL Ortho Proliferation Signal 1:50” value came to 18400 and the “Relative Proliferation Fold Change NKL 1:2” value is 3.47 fold. Moreover, in assay [2], the “Relative Proliferation Fold Change NKL 1:10” value was found to be 2.47 fold and the “Relative Proliferation Fold Change NKL 1:50” value came to 1.38 fold.

B4: T3N, SQVLKA (ligand)
chain: APNSSSTKKTQLQLSQLLVLLKAILNGINNYKNPKLTRMLTFKFYMPKKATELKHLQCLEEELKPLEEVLNLAQSKNFHLRPRDLISNINVIVLELKGSETTFMCEYADETATIVEFLNRWITFCQSIISTLT
Regarding B4, in assay [1], the “3F8 Ortho Proliferation Signal 1:2” value was determined as 34200 cts/min, the “3F8 Ortho Proliferation Signal 1:10” value was determined as 27200 cts/min, the “3F8 Ortho Proliferation Signal 1:50” value came to 9790 cts/min and the “Relative Proliferation Fold Change 3F8 1:2” value amounted to 2.07 fold. Further, in assay [1], the “Relative Proliferation Fold Change 3F8 1:10” value was determined as 2.99 fold and the “Relative Proliferation Fold Change 3F8 1:50” value was determined as 4.1 fold. Moreover, in assay [2], the “NKL Ortho Proliferation Signal 1:2” value is 62400, the “NKL Ortho Proliferation Signal 1:10” value worked out at 65700, the “NKL Ortho Proliferation Signal 1:50” value is 31400 and the “Relative Proliferation Fold Change NKL 1:2” value turned out to be 3.87 fold. Moreover, in assay [2], the “Relative Proliferation Fold Change NKL 1:10” value stood at 3.32 fold and the “Relative Proliferation Fold Change NKL 1:50” value was 1.77 fold.

B5: T3P, SQVLKA (ligand)
chain: APPSSSTKKTQLQLSQLLVLLKAILNGINNYKNPKLTRMLTFKFYMPKKATELKHLQCLEEELKPLEEVLNLAQSKNFHLRPRDLISNINVIVLELKGSETTFMCEYADETATIVEFLNRWITFCQSIISTLT
On to B5, for which, in assay [1], the “3F8 Ortho Proliferation Signal 1:2” value is 36500 cts/min, the “3F8 Ortho Proliferation Signal 1:10” value is 39700 cts/min, the “3F8 Ortho Proliferation Signal 1:50” value stood at 19000 cts/min and the “Relative Proliferation Fold Change 3F8 1:2” value worked out at 33.9 fold. In assay [1], the “Relative Proliferation Fold Change 3F8 1:10” value was 42.8 fold and the “Relative Proliferation Fold Change 3F8 1:50” value is 38.5 fold. Besides, in assay [2], the “NKL Ortho Proliferation Signal 1:2” value amounted to 55400, the “NKL Ortho Proliferation Signal 1:10” value was 56900, the “NKL Ortho Proliferation Signal 1:50” value was 32700 and the “Relative Proliferation Fold Change NKL 1:2” value came to 6.03 fold. For the same molecule, in assay [2], the “Relative Proliferation Fold Change NKL 1:10” value turned out to be 4.91 fold and the “Relative Proliferation Fold Change NKL 1:50” value was found to be 2.9 fold.

B6: T3D, SQVLKA (ligand)
chain: APDSSSTKKTQLQLSQLLVLLKAILNGINNYKNPKLTRMLTFKFYMPKKATELKHLQCLEEELKPLEEVLNLAQSKNFHLRPRDLISNINVIVLELKGSETTFMCEYADETATIVEFLNRWITFCQSIISTLT
Regarding B6, in assay [1], the “3F8 Ortho Proliferation Signal 1:2” value amounted to 33400 cts/min, the “3F8 Ortho Proliferation Signal 1:10” value came to 35000 cts/min, the “3F8 Ortho Proliferation Signal 1:50” value was 13400 cts/min and the “Relative Proliferation Fold Change 3F8 1:2” value came to 35.1 fold. In addition, in assay [1], the “Relative Proliferation Fold Change 3F8 1:10” value is 18.6 fold and the “Relative Proliferation Fold Change 3F8 1:50” value was found to be 19 fold. In assay [2], the “NKL Ortho Proliferation Signal 1:2” value is 49800, the “NKL Ortho Proliferation Signal 1:10” value amounted to 53900, the “NKL Ortho Proliferation Signal 1:50” value was found to be 27900 and the “Relative Proliferation Fold Change NKL 1:2” value turned out to be 4.09 fold. In addition, in assay [2], the “Relative Proliferation Fold Change NKL 1:10” value is 4.03 fold and the “Relative Proliferation Fold Change NKL 1:50” value amounted to 2.34 fold.

B7: T3E, SQVLKA (ligand)
chain: APESSSTKKTQLQLSQLLVLLKAILNGINNYKNPKLTRMLTFKFYMPKKATELKHLQCLEEELKPLEEVLNLAQSKNFHLRPRDLISNINVIVLELKGSETTFMCEYADETATIVEFLNRWITFCQSIISTLT
As to B7, in assay [1], the “3F8 Ortho Proliferation Signal 1:2” value is 36100 cts/min, the “3F8 Ortho Proliferation Signal 1:10” value is 36200 cts/min, the “3F8 Ortho Proliferation Signal 1:50” value stood at 18900 cts/min and the “Relative Proliferation Fold Change 3F8 1:2” value was determined as 20.8 fold. Also, in assay [1], the “Relative Proliferation Fold Change 3F8 1:10” value is 45.5 fold and the “Relative Proliferation Fold Change 3F8 1:50” value was found to be 16 fold. In assay [2], the “NKL Ortho Proliferation Signal 1:2” value worked out at 68600, the “NKL Ortho Proliferation Signal 1:10” value was 75000, the “NKL Ortho Proliferation Signal 1:50” value was determined as 37400 and the “Relative Proliferation Fold Change NKL 1:2” value turned out to be 3.97 fold. For the same molecule, in assay [2], the “Relative Proliferation Fold Change NKL 1:10” value came to 3.86 fold and the “Relative Proliferation Fold Change NKL 1:50” value amounted to 2.06 fold.

Values taken from US20210196796A1 (SYNTHEKINE, published 2021).
